Drawing on US20240301071A1 (Alector, published 2024), this text covers Kd, koff and kon for 16 molecules.

B1: 3F9-1 (antibody, human IgG1, V domains shown)
VH: EVQLLESGGGLVQPGGSLRLSCAASGFTFSSYAMSWVRQAPGKGLEWVATISEYGGSYTYYAESVKGRFTISRDNSKNTLYLQMNSLRAEDTAVYYCARPPYDDYYGGFAYWGQGTLVTVSS
VL: DIQLTQSPSSLSASVGDRVTITCRASKSVSSGGYSYMHWYQQKPGKAPKLLIYLASNLESGVPSRFSGSGSGTDFTLTISSVQPEDFATYYCQHNRELPSTFGQGTKLEIK
notes: also called mAb 3F9-1
B2: 3F9-7 (antibody, human IgG1, V domains shown)
VH: EVQLLESGGGLVQPGGSLRLSCAASGFTFSSYAMSWVRQAPGKGLEWVATISEYGGSYTYYAESVKGRFTISRDNSKNTLYLQMNSLRAEDTAVYYCARPPYDDYYGGFAYWGQGTLVTVSS
VL: DIQLTQSPSSLSASVGDRVTITCRASKSVSSGGYSYMHWYQQKPGKAPKLLIYLASNLESGVPSRFSGSGSGTDFTLTISSVQPEDFATYYCQHNRELPATFGQGTKLEIK
notes: also called mAb 3F9-7
B3: 3F9-4 (antibody, human IgG1, V domains shown)
VH: EVQLLESGGGLVQPGGSLRLSCAASGFTFSSYAMSWVRQAPGKGLEWVATISEYGGSYTYYAESVKGRFTISRDNSKNTLYLQMNSLRAEDTAVYYCARPPYDDYYGGFAYWGQGTLVTVSS
VL: DIQLTQSPSSLSASVGDRVTITCRASKSVSSGGYSYMHWYQQKPGKAPKLLIYLASNLESGVPSRFSGSGSGTDFTLTISSVQPEDFATYYCQHNRELPPTFGQGTKLEIK
notes: also called mAb 3F9-4
B4: 3F9-3 (antibody, human IgG1, V domains shown)
VH: EVQLLESGGGLVQPGGSLRLSCAASGFTFSSYAMSWVRQAPGKGLEWVATISEYGGSYTYYAESVKGRFTISRDNSKNTLYLQMNSLRAEDTAVYYCARPPYDDYYGGFAYWGQGTLVTVSS
VL: DIQLTQSPSSLSASVGDRVTITCRASKSVSSGGYSYMHWYQQKPGKAPKLLIYLASNLESGVPSRFSGSGSGTDFTLTISSVQPEDFATYYCQHNRELPITFGQGTKLEIK
notes: also called mAb 3F9-3
B5: 3F9-8 (antibody, human IgG1, V domains shown)
VH: EVQLLESGGGLVQPGGSLRLSCAASGFTFSSYAMSWVRQAPGKGLEWVATISEYGGSYTYYAESVKGRFTISRDNSKNTLYLQMNSLRAEDTAVYYCARPPYDDYYGGFAYWGQGTLVTVSS
VL: DIQLTQSPSSLSASVGDRVTITCRASKSVSSGGYSYMHWYQQKPGKAPKLLIYLASNLESGVPSRFSGSGSGTDFTLTISSVQPEDFATYYCQHNRELPGTFGQGTKLEIK
notes: also called mAb 3F9-8
B6: 3F9-16 (antibody, human IgG1, V domains shown)
VH: EVQLLESGGGLVQPGGSLRLSCAASGFTFSSYAMSWVRQAPGKGLEWVATISEYGGSYTYYAESVKGRFTISRDNSKNTLYLQMNSLRAEDTAVYYCARPPYDDYYGGFRYWGQGTLVTVSS
VL: DIQLTQSPSSLSASVGDRVTITCRASKSVSSGGYSYMHWYQQKPGKAPKLLIYLASNLESGVPSRFSGSGSGTDFTLTISSVQPEDFATYYCQHNRELPGTFGQGTKLEIK
notes: also called mAb 3F9-16
B7: 3F9-9 (antibody, human IgG1, V domains shown)
VH: EVQLLESGGGLVQPGGSLRLSCAASGFTFSSYAMSWVRQAPGKGLEWVATISEYGGSYTYYAESVKGRFTISRDNSKNTLYLQMNSLRAEDTAVYYCARPPYDDYYGGFAYWGQGTLVTVSS
VL: DIQLTQSPSSLSASVGDRVTITCRASKSVSSGGYSYMHWYQQKPGKAPKLLIYLASNLESGVPSRFSGSGSGTDFTLTISSVQPEDFATYYCQHNRELPWTFGQGTKLEIK
notes: also called mAb 3F9-9
B8: 3F9-13 (antibody, human IgG1, V domains shown)
VH: EVQLLESGGGLVQPGGSLRLSCAASGFTFSSYAMSWVRQAPGKGLEWVATISEYGGSYTYYAESVKGRFTISRDNSKNTLYLQMNSLRAEDTAVYYCARPPYDDYYGGFRYWGQGTLVTVSS
VL: DIQLTQSPSSLSASVGDRVTITCRASKSVSSGGYSYMHWYQQKPGKAPKLLIYLASNLESGVPSRFSGSGSGTDFTLTISSVQPEDFATYYCQHNRELPTTFGQGTKLEIK
notes: also called mAb 3F9-13
B9: 3F9-15 (antibody, human IgG1, V domains shown)
VH: EVQLLESGGGLVQPGGSLRLSCAASGFTFSSYAMSWVRQAPGKGLEWVATISEYGGSYTYYAESVKGRFTISRDNSKNTLYLQMNSLRAEDTAVYYCARPPYDDYYGGFRYWGQGTLVTVSS
VL: DIQLTQSPSSLSASVGDRVTITCRASKSVSSGGYSYMHWYQQKPGKAPKLLIYLASNLESGVPSRFSGSGSGTDFTLTISSVQPEDFATYYCQHNRELPATFGQGTKLEIK
notes: also called mAb 3F9-15
B10: 3F9-24 (antibody, human IgG1, V domains shown)
VH: EVQLLESGGGLVQPGGSLRLSCAASGFTFSSYAMSWVRQAPGKGLEWVATISEYGGSYTYYAESVKGRFTISRDNSKNTLYLQMNSLRAEDTAVYYCARPPYDDYYGGFQYWGQGTLVTVSS
VL: DIQLTQSPSSLSASVGDRVTITCRASKSVSSGGYSYMHWYQQKPGKAPKLLIYLASNLESGVPSRFSGSGSGTDFTLTISSVQPEDFATYYCQHNRELPGTFGQGTKLEIK
notes: also called mAb 3F9-24
B11: 3F9-10 (antibody, human IgG1, V domains shown)
VH: EVQLLESGGGLVQPGGSLRLSCAASGFTFSSYAMSWVRQAPGKGLEWVATISEYGGSYTYYAESVKGRFTISRDNSKNTLYLQMNSLRAEDTAVYYCARPPYDDYYGGFRYWGQGTLVTVSS
VL: DIQLTQSPSSLSASVGDRVTITCRASKSVSSGGYSYMHWYQQKPGKAPKLLIYLASNLESGVPSRFSGSGSGTDFTLTISSVQPEDFATYYCQHNRELPSTFGQGTKLEIK
notes: also called mAb 3F9-10
B12: 3F9-5 (antibody, human IgG1, V domains shown)
VH: EVQLLESGGGLVQPGGSLRLSCAASGFTFSSYAMSWVRQAPGKGLEWVATISEYGGSYTYYAESVKGRFTISRDNSKNTLYLQMNSLRAEDTAVYYCARPPYDDYYGGFAYWGQGTLVTVSS
VL: DIQLTQSPSSLSASVGDRVTITCRASKSVSSGGYSYMHWYQQKPGKAPKLLIYLASNLESGVPSRFSGSGSGTDFTLTISSVQPEDFATYYCQHNRELPTTFGQGTKLEIK
notes: also called mAb 3F9-5
B13: 3F9-2 (antibody, human IgG1, V domains shown)
VH: EVQLLESGGGLVQPGGSLRLSCAASGFTFSSYAMSWVRQAPGKGLEWVATISEYGGSYTYYAESVKGRFTISRDNSKNTLYLQMNSLRAEDTAVYYCARPPYDDYYGGFAYWGQGTLVTVSS
VL: DIQLTQSPSSLSASVGDRVTITCRASKSVSSGGYSYMHWYQQKPGKAPKLLIYLASNLESGVPSRFSGSGSGTDFTLTISSVQPEDFATYYCQHNRELPCTFGQGTKLEIK
notes: also called mAb 3F9-2
B14: 3F9-11 (antibody, human IgG1, V domains shown)
VH: EVQLLESGGGLVQPGGSLRLSCAASGFTFSSYAMSWVRQAPGKGLEWVATISEYGGSYTYYAESVKGRFTISRDNSKNTLYLQMNSLRAEDTAVYYCARPPYDDYYGGFRYWGQGTLVTVSS
VL: DIQLTQSPSSLSASVGDRVTITCRASKSVSSGGYSYMHWYQQKPGKAPKLLIYLASNLESGVPSRFSGSGSGTDFTLTISSVQPEDFATYYCQHNRELPITFGQGTKLEIK
notes: also called mAb 3F9-11
B15: 3F9-19 (antibody, human IgG1, V domains shown)
VH: EVQLLESGGGLVQPGGSLRLSCAASGFTFSSYAMSWVRQAPGKGLEWVATISEYGGSYTYYAESVKGRFTISRDNSKNTLYLQMNSLRAEDTAVYYCARPPYDDYYGGFQYWGQGTLVTVSS
VL: DIQLTQSPSSLSASVGDRVTITCRASKSVSSGGYSYMHWYQQKPGKAPKLLIYLASNLESGVPSRFSGSGSGTDFTLTISSVQPEDFATYYCQHNRELPITFGQGTKLEIK
notes: also called mAb 3F9-19
B16: 3F9-6 (antibody, human IgG1, V domains shown)
VH: EVQLLESGGGLVQPGGSLRLSCAASGFTFSSYAMSWVRQAPGKGLEWVATISEYGGSYTYYAESVKGRFTISRDNSKNTLYLQMNSLRAEDTAVYYCARPPYDDYYGGFAYWGQGTLVTVSS
VL: DIQLTQSPSSLSASVGDRVTITCRASKSVSSGGYSYMHWYQQKPGKAPKLLIYLASNLESGVPSRFSGSGSGTDFTLTISSVQPEDFATYYCQHNRELPVTFGQGTKLEIK
notes: also called mAb 3F9-6

In this assay the target is T1, histidine-tagged human SIRPA v1 (Novoprotein) (human, UniProt P78324 31-370, limits assumed).
T1 construct: bought, soluble; also called huSIRPA; soluble huSIRPA; not shown: histidine tag
T1 sequence (P78324 31-370 limits assumed): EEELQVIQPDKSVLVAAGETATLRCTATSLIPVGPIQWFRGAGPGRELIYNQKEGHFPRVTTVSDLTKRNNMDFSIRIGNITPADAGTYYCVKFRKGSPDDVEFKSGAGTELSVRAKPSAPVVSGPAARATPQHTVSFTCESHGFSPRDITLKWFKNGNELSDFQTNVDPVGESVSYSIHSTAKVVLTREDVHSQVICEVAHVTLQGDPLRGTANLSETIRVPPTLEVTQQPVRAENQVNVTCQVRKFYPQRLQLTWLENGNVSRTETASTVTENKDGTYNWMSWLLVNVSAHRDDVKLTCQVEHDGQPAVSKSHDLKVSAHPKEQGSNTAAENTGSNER
Description: BLI (Octet), antibody on anti-human IgG Fc sensor, His-huSIRPA in solution, single-curve 1:1 fit. The procedure:
Initial characterization of affinity matured anti-SIRPA antibodies disclosed herein comprised acquiring antigen affinity measurements using bio-layer interferometry (BLI) on a Pall ForteBio Octet RED96 instrument. Immobilized anti-mouse IgG Fc or anti-human IgG Fc antibodies captured murine anti-SIRPA 3F79 antibody and humanized anti-SIRPA 3F79 antibody on biosensors, respectively. Single cycle kinetics were performed with 25 nM huSIRPA [which variant?] or 50 nM huSIRPB 1 flowed over captured antibody 3F79 to record traces. Data analysis was performed using ForteBio Data Analysis Software, version 9.0. Standard kinetic buffer (PBS, 0.100 BSA, 0.02% Tween-20, pH 7.2) was used for the assay and for preparing reagents. […] 50 nM of histidine-tagged human SIRPA vi or human SIRPB1 (Novoprotein, Summit, NJ, USA) were then bound to the captured anti-SIRPA antibody coated surface (200 s association time, 900 s dissociation time). […] Single-curve kinetic analysis was performed using a 1:1 interaction model to extract association and dissociation rate constants (ka and kd, respectively) for each antibody. Affinity constants (KD) were calculated from the ratio kd/ka.
The Kd is the constant that tells how readily two partners part at equilibrium. Read a high Kd as a looser complex. Broadly, the koff is a measure of how fast the partners let go of each other. A low value points to slow dissociation. As a reminder, the kon is the rate constant with which the complex forms. A high value points to fast association. The molecule B1 gave a Kd of 2.09 nM, a koff of 0.000222 s⁻¹ and a kon of 106000 M⁻¹ s⁻¹.
The like results for B2 were, in that order, 1.81 nM, 0.00018 s⁻¹ and 99200 M⁻¹ s⁻¹.
The like results for B3 were, in that order, 1.79 nM, 0.000203 s⁻¹ and 113000 M⁻¹ s⁻¹.
The matching figures for B4: 4.43 nM, 0.000416 s⁻¹ and 93900 M⁻¹ s⁻¹.
Consider B5, for which binding was put at a Kd of 3.6 nM, the koff was determined as 0.000276 s⁻¹ and the kon was 76600 M⁻¹ s⁻¹.
In the case of B6, the Kd was 1.27 nM, the koff stood at 0.000151 s⁻¹ and the kon stood at 119000 M⁻¹ s⁻¹.
On to B7, for which the equilibrium dissociation constant (Kd) was 3.38 nM, the koff came out at 0.000302 s⁻¹ and the kon stood at 89400 M⁻¹ s⁻¹.
The like results for B8 were, in that order, 1.38 nM, 0.000201 s⁻¹ and 146000 M⁻¹ s⁻¹.
As to B9, the Kd was determined as 6.28 nM, the koff worked out at 0.000362 s⁻¹ and the kon came to 57600 M⁻¹ s⁻¹.
Molecule B10 showed a Kd of 1.07 nM, a koff of 0.000155 s⁻¹ and a kon of 144000 M⁻¹ s⁻¹.
Molecule B11 gave a Kd of 1.51 nM, a koff of 0.000201 s⁻¹ and an on-rate (kon) of 134000 M⁻¹ s⁻¹.
The like results for B12 were, in that order, 2.95 nM, 0.000276 s⁻¹ and 93600 M⁻¹ s⁻¹.
In the case of B13, the Kd amounted to 2.06 nM, the koff came out at 0.000222 s⁻¹ and the kon is 108000 M⁻¹ s⁻¹.
The like results for B14 were, in that order, 1.43 nM, 0.000192 s⁻¹ and 134000 M⁻¹ s⁻¹.
The like results for B15 were, in that order, 1.29 nM, 0.000181 s⁻¹ and 141000 M⁻¹ s⁻¹.
The matching figures for B16: 1.65 nM, 0.000192 s⁻¹ and 116000 M⁻¹ s⁻¹.
